Test results as given in article PMC5465072.

Columns and labels:
Settings in all cases: modification not given
[1] = biological target: T1, Protective antigen (PA) 488-735 (Bacillus anthracis), P13423
[2] = biological target: T1, Protective antigen (PA) 488-735 …; experiment: ELISA
[3] = biological target: T2, CMG2 38-218 (Homo sapiens), P58335; experiment: microscale thermophoresis
T2 chain: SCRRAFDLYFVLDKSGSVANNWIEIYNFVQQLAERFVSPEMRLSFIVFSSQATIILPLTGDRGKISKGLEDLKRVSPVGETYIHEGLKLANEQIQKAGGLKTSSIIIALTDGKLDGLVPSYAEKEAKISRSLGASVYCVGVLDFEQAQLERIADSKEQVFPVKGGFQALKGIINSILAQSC

[4] = biological target: T2, CMG2 38-218 (Homo sapiens), P58335; experiment: sandwich ELISA (competition with His6-PA 596-735)
[5] = biological target: T2, CMG2 38-218 (Homo sapiens), P58335; experiment: sandwich ELISA (competition with His6-PA 488-735)

**Q.** How did the Kd [1] turn out when CMNHFPA was run?
**A.** The Kd was 38.2 µM.

**Q.** What about the IC50 [2] of the same binder?
**A.** The IC50 was 49.8 µM.

**Q.** With HPCNAMF [HPCNAMF (scrambled CMNHFPA)] as the binder, how does the IC50 [2] read?
**A.** Its IC50 is 153 µM.

**Q.** With CLRFT as the binder, how does the Kd [3] read?
**A.** Its Kd is 30.2 µM.

**Q.** And the IC50 [4]?
**A.** The IC50 was 71.3 µM.

**Q.** What about the IC50 [5] of the same binder?
**A.** Its IC50 is 77.1 µM.
